Several values for one entry are separate records, joined by “and”; a condition that tells them apart may be missing. Equal entries are not always repeated. Where a SMILES comes first, the peptide text is derived from it. Bridges are numbered along the chain shown (N, C = ends). [ ]: non-standard residue; d: D form. The star is where a group is joined. DOTA = O=C(O)CN1CCN(CC(=O)O)CCN(CC(=O)*)CCN(CC(=O)O)CC1
What was measured:
[1] = mice, blood collected 5 min pi, radio-HPLC
Description: At 5 min pi blood (~1mL) was collected from the heart of mice in a prechilled insulin syringe and swiftly placed in an ice-cold polypropylene tube containing EDTA on ice. Blood samples were centrifuged at 2000× g at 4 °C for 10 min. […] The mixture was centrifuged for 10 min at 15,000× g at 4 °C. […] An RP18 Symmetry Shield cartridge column (5 μm, 3.9 mm × 20 mm, Waters, Vienna, Austria) was eluted at a 1 mL/min flow rate with the following gradient: 100%A/0%B to 60%A/40%B in 40 min, whereby A = 0.1% aqueous TFA and B = MeCN (system 3).

in vivo [2] = conditions: male, SCID, mouse, iv, total radioactivity
Description: (§1) For biodistribution experiments, male SCID mice of 7 weeks of age (15–20 g) on arrival day (NCSR ‘‘Demokritos’’ Animal House, Athens, Greece) were subcutaneously injected in their flanks with a suspension of AR4-2J cells (150 μL inocula of ~1 × 10^7 cells in PBS). The animals were kept under aseptic conditions for 12 days until well-palpable tumors were grown at the inoculation site. […] In an additional group, animals were co-injected with excess TATE (100 nmol) together with the radioligand (blocked animals) and were sacrificed at 4 h pi. Blood was immediately collected, and the organs of interest were excised and weighed. Sample radioactivity was measured in the γ-counter using proper standards of the injected activity. Data were calculated as %IA/g with the aid of standard solutions and represent mean values ± sd. For comparisons, a Two-way ANOVA with Tukey’s post hoc analysis was applied (PRISM^TM GraphPad—6 Software, San Diego, CA, USA). p values < 0.05 were considered statistically significant.

[3] = test system: AR4-2J tumor-bearing SCID mice (rSST2R-positive); assay: in vivo; conditions: AR4-2J mice, 4 h pi, block: co-injection of 100 nmol TATE; mean ± sd, n = 4
Description: as §1

in vivo [4] = conditions: male, SCID, mouse, iv, total radioactivity; remark: listed apart in the source
Description: (§2) For the second biodistribution experiments, male SCID mice of 7 weeks of age (15–20 g) on arrival day (NCSR ‘‘Demokritos’’ Animal House, Athens, Greece) were subcutaneously injected in their flanks with a suspension of HEK293-hSST3R cells (150 μL inocula of ~3 × 10^7 cells in PBS). The animals were kept under aseptic conditions for 3–4 weeks until well-palpable tumors were grown at the inoculation site. […] Mice were sacrificed at 4 h pi, and biodistribution analyses were conducted, as described above.

[5] = test system: HEK293-hSST3R tumor-bearing SCID mice; assay: in vivo; conditions: HEK293-hSST3R mice, 4 h pi, block: co-injection of 80 nmol KE108; mean ± sd, n = 4
Description: as §2

[6] = AR4-2J tumor, 10 pmol total peptide
[7] = pancreas, 10 pmol total peptide

C[C@H](NC(=O)CN1CCN(CC(=O)O)CCN(CC(=O)O)CCN(CC(=O)O)CC1)C(=O)NCC(=O)N[C@H]1CSSC[C@@H](C(=O)O)NC(=O)[C@H](CO)NC(=O)[C@@H]2CSSC[C@H](NC(=O)[C@H](CCCCN)NC1=O)C(=O)N[C@@H](Cc1ccccc1)C(=O)N[C@@H](Cc1ccccc1)C(=O)N[C@H](Cc1c[nH]c3ccccc13)C(=O)N[C@@H](CCCCN)C(=O)N[C@@H]([C@@H](C)O)C(=O)N[C@@H](Cc1ccccc1)C(=O)N2 [[^111In]In-AT6S, metal not drawn] ({DOTA}-AGCKCFF[dW]KTFCSC-OH; disulfide 3-14, 5-12)
% intact radioligand in peripheral blood [1]: > 98% and > 96% | tissue uptake at 4 h (in vivo [2]; [6]): 1.9 ± 0.1 %ID/g | tissue uptake at 24 h (in vivo [2]; [6]): 0.8 ± 0.1 %ID/g | tissue uptake at 4 h (in vivo [2]; blood, 10 pmol total peptide): 0.3 ± 0.01 %ID/g | tissue uptake at 24 h (in vivo [2]; blood, 10 pmol total peptide): 0.07 %ID/g | tissue uptake at 24 h (in vivo [2]; femur, 10 pmol total peptide): 0.6 ± 0.1 %ID/g | tissue uptake at 4 h (in vivo [2]; heart, 10 pmol total peptide): 0.5 ± 0.05 %ID/g | tissue uptake at 24 h (in vivo [2]; heart, 10 pmol total peptide): 0.3 ± 0.06 %ID/g | tissue uptake at 4 h (in vivo [2]; heart, with TATE 100 nmol co-injected (in vivo SST2R blockade)): 0.7 ± 0.1 %ID/g | tissue uptake at 24 h (in vivo [2]; intestines, 10 pmol total peptide): 0.6 ± 0.08 %ID/g | tissue uptake at 24 h (in vivo [2]; kidneys, 10 pmol total peptide): 34.1 ± 3.9 %ID/g | tissue uptake at 4 h (in vivo [2]; kidneys, with TATE 100 nmol co-injected (in vivo SST2R blockade)): 49.5 ± 10.5 %ID/g | tissue uptake at 4 h (in vivo [2]; liver, 10 pmol total peptide): 16.6 ± 1.5 %ID/g | tissue uptake at 24 h (in vivo [2]; liver, 10 pmol total peptide): 12.1 ± 2.4 %ID/g | tissue uptake at 24 h (in vivo [2]; muscle, 10 pmol total peptide): 0.1 ± 0.03 %ID/g | tissue uptake at 4 h (in vivo [2]; [7]): 0.5 ± 0.1 %ID/g | tissue uptake at 24 h (in vivo [2]; [7]): 0.4 ± 0.07 %ID/g | tissue uptake at 24 h (in vivo [2]; spleen, 10 pmol total peptide): 6 ± 1.1 %ID/g | tissue uptake at 4 h (in vivo [2]; stomach, 10 pmol total peptide): 0.8 ± 0.04 %ID/g | tissue uptake at 24 h (in vivo [2]; stomach, 10 pmol total peptide): 0.3 ± 0.03 %ID/g | tissue uptake at 4 h (in vivo [2]; stomach, with TATE 100 nmol co-injected (in vivo SST2R blockade)): 0.5 ± 0.2 %ID/g | Tumor uptake [3]: 0.8 ± 0.05 %IA/g | tissue uptake at 4 h (in vivo [4]; HEK293-hSST3R tumor, 10 pmol total peptide): 3.7 ± 0.4 %ID/g | tissue uptake at 4 h (in vivo [4]; blood, 10 pmol total peptide): 0.3 ± 0.02 %ID/g | tissue uptake at 4 h (in vivo [4]; heart, 10 pmol total peptide): 0.5 ± 0.05 %ID/g | tissue uptake at 4 h (in vivo [4]; heart, with KE108 80 nmol co-injected (in vivo SST3R blockade)): 0.1 %ID/g | tissue uptake at 4 h (in vivo [4]; kidneys, with KE108 80 nmol co-injected (in vivo SST3R blockade)): 26.8 ± 5.4 %ID/g | tissue uptake at 4 h (in vivo [4]; liver, 10 pmol total peptide): 16.6 ± 1.5 %ID/g | tissue uptake at 4 h (in vivo [4]; [7]): 0.5 ± 0.04 %ID/g | tissue uptake at 4 h (in vivo [4]; stomach, 10 pmol total peptide): 0.8 ± 0.05 %ID/g | tissue uptake at 4 h (in vivo [4]; stomach, with KE108 80 nmol co-injected (in vivo SST3R blockade)): 0.1 ± 0.04 %ID/g | Tumor uptake [5]: 0.3 ± 0.05 %IA/g

— paper PMC10856354 (International Journal of Molecular Sciences, 2024)
